Laboratory results reported in a protein production outcome set (Wang et al. 2014).

Experiment: label from the status in PepcDB records
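Note: failed if final PepcDB status was selected cloned or expressed and not failed if soluble or beyond.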

Sequence	protein production
MKEVLFISEMERGRAEIESRVSNIKTTQDFGYREKIKEKKDASTAYAACISELLLEEKVKKIAVAYDFPIFYSNYLTEAGFTIVPVKSPFRKMRSVKGPEEIEAIKYAQMAGEKAMEAAITLIADAEEKDGVLYFEGQVLTGAKVNSVIDHTLLDFGCEAEETIVSCGEDTSNPHGTTEGPLRANAPIILDIFPRSKKKRYFADMTRTVLRGEASEKLKEMYETVLVAQQKALEMVKPGIHSSEIHRAVCDLFEARGYHTYRSGSKAGFTHSTGHGVGLDIHELPSVGESGVLLETGNVITIEPGLYYPGIGGIRLEDMVLVTKTGYENFTGLEKKFVLKSFYNLEHHHHHH	failed
MISVGKGKIMITPDHNIIKPIAIVLPQFHPIRENNLWWGEGFTEWTNVVKGRPRFRGHYQPHLPKDLGYYDLRLPETRKAQAALATKYGIYGFCYYHYWFNGRRILESPVDAMLESGEPDFPFMLCWANENWTRNWDGSYNKVLLEQKYSKEDFVNHARHLIRYFKDDRYIKIDGRPVFAIYKDDIGEDIEKYLLLFRNELLKNSINVFLCRFERNIGTSRDLNRAFQVFDAGIEFQPLARQFSYLINYNNRLSRRIYKTLKKHFCFCKNIDDVYVYSHLVDNDLKYDFQQGWPIFPGVCPGWDNSARRRDTTAIIFDKSTPEIFKLWVREKIRITDWNLLPERFLFVNAWNEWAEGNHLEPCEKWGTQYLAALQAGINEM	failed
MRKARGKAAKGGRAVTGDPIGDAAVLSALFANSPQGLFVFDSEQKVTRYNPAGRGVRGLPEEDVVGQGIADFVPGFEAVELQGLIDEVLATGEALRGRLVRGRAPSGPHRTLAVEVSLFPLRDLGDGKPGLVGVVEDVTE	failed
MFEISRSRAKAMRPFLALATATVMMLSLAACSSSDNSSTNAQGNTDVAVGGQRFSTADQETAKLGSDAQPGQFPRTVVHAAGTTEITTKPERVVVLDTGELDSVLSLGITPVGMTTTKGANPVPSYLADKVKDVERVGTINELNIEAIAALKPDLIIGSQLRADKLYPQLSDIAPTVFSIRPGSPWKENFLLVGEALGMEKEAEEKLNEYADRVAELKNNVPQNTEVSLVRFMPNKLRLYGNKSLIGVVLADAGLARPEKQNVDDLAVEISPENIDQAAGSVIFYTSYGKPDATGETAVVEGPAWKNLEAVAAGKAHRVNDDVWFLGLGPTGAMEIVSDLHDYLLKK	failed
MRLTIERRKASLYLRGNLPPKLPGGEWKQQRMPLGLDATPLGVKQAEAKAHQVGLELQMDRFRWQDHVELPIDASVMSGLVHLAEERYFSERDRTAKTLSTWQRVYVAHYRQIGLDKPFSLELIHRYLSSKRGFPNALQKAIVACRFLCAVANQPLDARPWQGVATRREVVPRELPTQQQIVDWFDHLKNMQLHHQPEFRAGWIWVYAAIATYGLRPHEAWYLDLDSLRKSKGKRVWLKDGKTGPRWVYPCPPQWVQRFDLCHGGPPPINVRNNQELGTRAGQWAKANGVPPLYGLRHSYAVRLIEYEFPVTVAAKMMGHSPQVHTETYHRWLGDREVQSYAEDLLR	failed
MDAARFPADARVRVLARRFPPYHRDSPCLAILDRFLHDPTLSAAAVVDDAMRPVGLIDRYSLVEQFLHPYSRDLYHKHSIAAFMDPEPVIVEADSSIDDLSRIIIDAGMRHMVSGFIVTEDGLYLGIGSGHDLFEEVANRKQNHLYHLAHYDPLTSLPNRLLLNDRLKRACLRGQRGGYRIALLFIDLDRFKLVNDTLGHAAGDQLLQGVAGRFAACVRKVDTVARLGGDEFTVLLEPVQGPDEALAVAAKLAQSLERPFLIQNHEITTSASIGVVLFPEHDATVEGLMRKADAAMYCAKREGRNRFALFTEEMNSTVVERVTLESYLNAALEKGEFCCHFQPQMATADDRIVGVEALLRWTNPVLGRVPPLKFIPVAEDTGLILPLGLWALETACAQQVRWLSQGLPPLRMAVNISPLQFRNREFCDQVRAIVQRTGIRAEHLELELTESAVMADAESSVGILRELRDSGIRLAIDDFGTGYSSLSYLRKFPLDRLKIDRSFVSGIDRIPANELIVKAIVALGGSLGLDVIAEGVETPEELECIERCGCSEYQGFRLSEPLTAEDFAHWFEDSGYVLEHHHHHH	failed
MDANEKKEVIKKRFQEIAMSGGTCCSGGGCCGDSSSSDISRAIGYSEADIEAVPDANMGLGCGNPASIAELKPGDIVLDLGSGAGFDCFLAAQKVGNSGKVIGVDMTPEMVEKVQANARKYGYSNVEFRQGDIEALPVEDSSVDVIISNCVINLAPDKEKVFREAFRVLKLGGRLYISDLVLLDELPEDLKNDRDLLAGCVAGAVLKEEYLKLLKRAGFSVEILAEDPDISKSQYKGLPVESLKLKAWVLEHHHHHH	not failed
MFKKHNFHFNWLPLILISTVSIMLIFNIRSILSEGIRPFLSVLTPFFWAFGIAYLINPLMMLIEKKFKLKRAFSLMISYILVIICVYILIAIIVPTIFDSLSELFSNLSEYASSAESWINNTLASMNVPLDLNHLNTSATEFISKTSTLLSNIVGSLLTQTIKITSSVVKFVFGFIISIYMLMDKETLIEGCKKIIIAVMPSEKSSELFISFMAEAHNIFSRFIIGKIIDSLIIGVLCYIGLLLMGTQYAVLISFIVGLTNMIPYFGPFIGMIPAFLLTLIVQPSMAIWVLLFIFILQQFDGWYLGPKILGDQVGVSPLFIIFAVTVGGGIFGVLGMFLSVPIIALIKIYTEKFIEYRLENKKQNFSE	failed
MLAPERIHPALWRATQLAHGPTRKLPTGYADLSAQLPGGGWPLGALVELLLPQPGSGEIRLLRPALAQLEARRAIALVQPPHAPHIASWASWRLDPRQLLWVAPERPADALWAAEQILKAGSCAALLCWLPQVRPESLRRLHLAAQGGDALFVALRPAAAEQHASPAVLRLALAPAPGGLSIRIVKRRGPACEHPVHVGLEAGAGLSVFPAPHAPLDRRLPAQPVAGRRTPALVSLEHHHHHH	not failed
MTETRIKQLLGQMSLEEKVSILSGEDFWSVAAVERLGIGKLRVSDGPNGARGGGSLVGGVKSASFPVGIAIGSTWNVELVREIGAALADEVKSKGAHMLLAPTVNIHRSVTNGRNFECYSEDPILSAELAVSYITGLQEQGIGATIKHFVGNESEIERTTISSEVDERALREIYLIPFEWAVRKAHTWGIMSSYNRLNGTFTSEHDWLLGHVLRDEWHYDGIVMSDWFGSHSTAETVNAGLDLEMPGPTRDRGQKLVDAVNAGEVSLETLDRRVLAMLRLMERVGSLDDHRPHVEKAEDRPEHRALIRRAGAEAAVLLKNDGVLPLEGSGKIAVIGPNAKTAQIMGGGSAQLNAHYRISPWQGLVAALGEERLTYAKGCTNDRFEPLLRGVLDVDYFDNLTLSGEPVHRGTIEDAQTFWIGQVAEGKVDALHFSARVRGRFTPEASGEHNVGIYAAGFAKVYIDGKLVADAWTNWTKGRTFFEEGCDEVVGTITLEAGHAYDVTIEFCTKDFATLGLAAFACGIGHPLGDDAIAAAVEAARTAETALLFIGRNGEWDTEGSDLPAIVLPGRQNELVEAVAAVNPRTVVVLQSGGPVEMPWAGQVAAVVSAWYPGQEAGNAIADVLTGLAEPGGRLPQTFPVRWADNPAHSQDREVYPGLEGKVRYEESIFVGYRHYDKLGLTPLYPFGFGLGYTSFALSDLSVDASNFETEGTVSVTLNVTNTGDRVGSTVVQLYVSDTLSSAPRPSKELKAFAKVKLEAGASRGVTLSLDARAFAFFDAGSKSWLVEPGDFILRVGQSSADLPLTARITRTGAMHLPL	failed
IYGYVEKATLIDQNLTLSAKLDTGAKSASLHAVNITEIEKKGIPYLRFTVPTKTGDYSFEGEYVGKVKIKVRSSETNPGLLRTTPIKRPVVLLNIKLGDKVRTIKVNLTNRKRFLYPLLLGRDAIIDFNGAVDPALTFTTKSK	not failed
MKQLPKTRTALLLAFLVIMWGVNWPLSKAALAYSPPLLFAGIRTLIGGLLLVIVALPRIHKLRLKETWPIYLVSALLNITLFYGLQTIGLNYLPAGLFSAIVFFQPVLMGVFSWLWLGESMFVMKVIGLILGFAGVAVISAAGFGGHISVIGVLLALGSAVSWALGTVYMKKTGSRVDSIWMVALQLTIGSVFLLISGFWTESFSAIQWTAPFITSLLFISVFVIALGWLVFFTLVGSGEASKVASYTFLIPLISIVASSIFLHEPLTLSLLAGLLLIVTSICLVNTKSKAQKAAAIGINEKAAQ	failed
MSMKGKETMSNEKIVVGKFGATYGIRGWLKVFSYTDNAESIFDYSPWYINQKGKWVEYKVESWKRHNKGMVAKLEGMDVREDAHLMTNFEIAIDPAVLPELSEDEFYWRELFGMHVVTTKGYDLGVVTDMLETGSNDVLVVKANLKDAFGQKERLIPFLEEQVIIKVDREAQRIEVDWDPGFLEHHHHHH	not failed
KCETKEKGAITAKELYTMMTDKNISLIIMDARRMQDYQDSCILHSLSVPEEAISPGVTASWIEAHLPDDSKDTWKKRGNVEYVVLLDWFSSAKDLQIGTTLRSLKDALFKWESKTVLRNEPLVLEGGYENWLLCYPQYTTNAKV	not failed
MRFSFLPIVILMMPILEIAGFIIVGKAIGLWLTLALILFTSFLGLLILRLGGVGMVRNLQAAGRTGAQPADELVNGAMRVVAGILLIIPGFITDILGLLLLSPAIRRFFWKAFGPRVVVSGSFRQSGPQQGDYSGFRNGPGPAGNSKVVDLDEEEFHREGSKDSPWSNRPDDRDLPKP	failed
MTPYDIKDPDVRRRRFRPIPVRMLVPNVITLLAICAGLTSIRLSIEGRMSLAVYAIVFAAALDGIDGRIARMIKGQSKFGAELDSLADFVNFGVAPGLMLYFWQLHELGNAGWIAAMVFAISGGLRLARFNATMDDPNKPAFAANFFTGVPAPAGAITVLLPIYVAFLDLGRAPAAVTAAYTLLIAFLMVSRLPVFSGKTKRMRVPPELVLPAFVAVIVFIAILIAYPWHVLSIGTVLYLLALPLGYKSYRDQARAMDAATPAGGEISSPPSAPTLANLSEPPHDDDRPGRLH	failed
MYLEKLQQWRYATADFSGAHITDDVLDKLLNTTRLTASSYGLQPYCTLVIRNKGLREQLVNHSFGQQKVADSSALVIFAAKTGAVADIVDPYISELSQQRQLTNEEAENTRNYFTQKLQAMSAATRKEWAVRQAYIGLGTFLLAAAELEVDSCPMEGIEHDAYDNILSLKDLGLSTVFACPVGYRSEADTTQFQKKVRQPLSRFKVVL	not failed
CRLLWDYVYQLLSDSRYENFIRWEDKESKIFRIVDPNGLARLWGNHKNRTNMTYEKMSRALRHYYKLNIIRKEPGQRLLFRFMKTPDEIMSGRTDRLEHLESQEL	not failed
MDDQSGDQMRPELTMPPAEAEALRMAYEEAEVILEYGSGGSTVVAAELPGKHVTSVESDRAWARMMKAWLAANPPAEGTEVNIVWTDIGPTGDWGHPVSDAKWRSYPDYPLAVWRTEGFRHPDVVLVDGRFRVGCALATAFSITRPVTLLFDDYSQRRWQHQVEEFLGAPLMIGRLAAFQVEPQPIPPGSLMQLIRTMTSP	not failed
MKLVTISGPPSSGKTAVLAGVIRAMMASGLKVGALKYDCLATNDDDVFRAIGVPVQTGLSGNLCPDHYFVSNIEECLDWGIREGFDFLLSESAGLCNRCAPHIKGVLAVCVIDNLMGATTPKKIGPMLKYADIVVITKGDIVSQAEREVFAFQVRRANPRAKIMHVNGITGQGAGELASQFLLAPETTCLDGSRLRFSMPAALCSYCLGETRIGMEFQLGNVKKIKMSEEPARLEHHHHHH	not failed
MSIFTAAMIALVYWISQAKVWYGFSIMRMPLSIAPIMGLIFNDMPTALSVGATLQMIYIGSIAPGGNPPADEGLASCIAIPIALTAGIKPEIAISLAIPLGLLGVVLENVRKTLNTTFIHMADRYAEKGDIKGIQRAATIYPLLLAFPMRFVPVFIACLYGPDAIASFVNLLPAWSTNGLAIAGNILPALGFAITIIVIGKKQYIPLFIIGFFLVTYSGLNTIGISIFGLCAVLLYMQSQNTKGTKNG	failed
